{"source": "paper PMC3222833", "about": "(Journal of medicinal chemistry, 2011)", "key": {"[1]": {"tested_on": "rhGCPII", "conditions": "WT rhGCPII, radioenzymatic assay with 3H-NAAG; cited from earlier work"}, "[2]": {"tested_on": "CC(=O)N[C@@H](CC(=O)O)C(=O)N[C@@H](C)C(=O)O", "test": "Saturation kinetics of dipeptide hydrolysis by wild-type rhGCPII", "type": "biochemical, human", "conditions": "other: wild-type rhGCPII, Table 1; 37.0 °C"}, "[3]": {"tested_on": "CCCCCC(NC(=O)[C@H](CC(=O)O)NC(C)=O)C(=O)O", "test": "Saturation kinetics of dipeptide hydrolysis by wild-type rhGCPII", "type": "biochemical, human", "conditions": "other: wild-type rhGCPII, Table 1; 37.0 °C"}, "[4]": {"tested_on": "CCCCCCC(NC(=O)[C@H](CC(=O)O)NC(C)=O)C(=O)O", "test": "Saturation kinetics of dipeptide hydrolysis by wild-type rhGCPII", "type": "biochemical, human", "conditions": "other: wild-type rhGCPII, Table 1; 37.0 °C"}, "[5]": {"tested_on": "CCCCCCCC(NC(=O)[C@H](CC(=O)O)NC(C)=O)C(=O)O", "test": "Saturation kinetics of dipeptide hydrolysis by wild-type rhGCPII", "type": "biochemical, human", "conditions": "37.0 °C"}, "[6]": {"tested_on": "CCCC[C@H](NC(=O)[C@H](CC(=O)O)NC(C)=O)C(=O)O", "test": "Saturation kinetics of dipeptide hydrolysis by wild-type rhGCPII", "type": "biochemical, human", "conditions": "other: wild-type rhGCPII, Table 1; 37.0 °C"}, "[7]": {"tested_on": "CCC[C@H](NC(=O)[C@H](CC(=O)O)NC(C)=O)C(=O)O", "test": "Saturation kinetics of dipeptide hydrolysis by wild-type rhGCPII", "type": "biochemical, human", "conditions": "other: wild-type rhGCPII, Table 1; 37.0 °C"}, "[8]": {"tested_on": "CC[C@H](NC(=O)[C@H](CC(=O)O)NC(C)=O)C(=O)O", "test": "Saturation kinetics of dipeptide hydrolysis by wild-type rhGCPII", "type": "biochemical, human", "conditions": "other: wild-type rhGCPII, Table 1; 37.0 °C"}, "[9]": {"tested_on": "CSCC[C@H](NC(=O)[C@H](CC(=O)O)NC(C)=O)C(=O)O", "test": "Saturation kinetics of dipeptide hydrolysis by wild-type rhGCPII", "type": "biochemical, human", "conditions": "other: wild-type GCPII, Table 2; 37.0 °C"}, "[10]": {"molecular_target": "T1, recombinant human GCPII (rhGCPII) (Homo sapiens, UniProt Q04609)", "T1 sequence (Q04609 44-750)": "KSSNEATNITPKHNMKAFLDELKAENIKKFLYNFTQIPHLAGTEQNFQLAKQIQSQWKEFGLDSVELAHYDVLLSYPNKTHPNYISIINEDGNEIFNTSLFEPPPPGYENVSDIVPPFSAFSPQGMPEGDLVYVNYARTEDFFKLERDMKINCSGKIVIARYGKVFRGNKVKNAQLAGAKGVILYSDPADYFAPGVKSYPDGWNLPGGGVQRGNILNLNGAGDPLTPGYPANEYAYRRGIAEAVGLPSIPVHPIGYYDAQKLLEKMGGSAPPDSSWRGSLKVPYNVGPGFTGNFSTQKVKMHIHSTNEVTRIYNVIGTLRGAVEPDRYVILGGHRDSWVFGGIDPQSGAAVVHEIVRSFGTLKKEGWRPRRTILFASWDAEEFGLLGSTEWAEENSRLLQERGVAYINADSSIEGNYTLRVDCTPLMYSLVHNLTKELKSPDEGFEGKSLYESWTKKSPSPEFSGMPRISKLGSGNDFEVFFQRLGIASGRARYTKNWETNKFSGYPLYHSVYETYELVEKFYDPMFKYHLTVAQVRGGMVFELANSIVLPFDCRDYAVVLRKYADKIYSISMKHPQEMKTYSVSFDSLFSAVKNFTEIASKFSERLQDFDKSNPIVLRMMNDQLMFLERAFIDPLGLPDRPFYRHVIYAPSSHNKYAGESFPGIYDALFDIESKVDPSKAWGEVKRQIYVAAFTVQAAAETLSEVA", "test": "Saturation kinetics of dipeptide hydrolysis by wild-type rhGCPII", "type": "biochemical", "conditions": "ratio of catalytic efficiency"}, "[11]": {"molecular_target": "rhGCPII(K699S) mutant (Homo sapiens, UniProt Q04609, K699S)", "sequence (Q04609 44-750 K699S)": "as the sequence (Q04609 44-750) above, with K656S counted along it", "test": "Saturation kinetics of substrate hydrolysis by mutated GCPII", "type": "biochemical", "conditions": "kinetic assay"}, "[12]": {"molecular_target": "T1, recombinant human GCPII (rhGCPII)", "conditions": "cited from earlier work"}, "[13]": {"conditions": "other: wild-type GCPII, Table 2"}, "[14]": {"conditions": "other: wild-type rhGCPII, Table 1"}}, "note": "Several values for one entry are separate records, joined by “and”; a condition that tells them apart may be missing. Equal entries are not always repeated. Residues, ends and D or L forms follow the SMILES beside them.", "data": [{"molecule": "CC(=O)N[C@@H](CC(=O)O)C(=O)N[C@@H](CCC(=O)O)C(=O)O", "note": "[NAAG, N-acetyl-aspartyl-glutamate] (Ac-Asp-Glu-OH)", "values": [{"measurement": "Km", "setting": "[1]", "result": "1.2 ± 0.5", "unit": "µM"}, {"measurement": "kcat", "setting": "[1]", "result": "1.1 ± 0.2 ^# s^-1 and 1.1 ± 0.2 ^* s^-1"}]}, {"molecule": "recombinant human GCPII (rhGCPII) (Homo sapiens)", "values": [{"measurement": "Km", "setting": "[2]", "result": "85 ± 21", "unit": "µM"}, {"measurement": "kcat", "setting": "[2]", "result": "0.23 ± 0.05", "unit": "s⁻¹"}, {"measurement": "kcat/Km", "setting": "[2]", "result": 2700, "unit": "M⁻¹ s⁻¹"}, {"measurement": "Km", "setting": "[3]", "result": "12 ± 1", "unit": "µM"}, {"measurement": "kcat", "setting": "[3]", "result": "0.44 ± 0.04", "unit": "s⁻¹"}, {"measurement": "kcat/Km", "setting": "[3]", "result": 36700, "unit": "M⁻¹ s⁻¹"}, {"measurement": "Km", "setting": "[4]", "result": "8 ± 2", "unit": "µM"}, {"measurement": "kcat", "setting": "[4]", "result": "0.6 ± 0.03", "unit": "s⁻¹"}, {"measurement": "kcat/Km", "setting": "[4]", "result": 75000, "unit": "M⁻¹ s⁻¹"}, {"measurement": "Km", "setting": "[5]; [13]", "result": "10.4 ± 2.5", "unit": "µM"}, {"measurement": "kcat", "setting": "[5]; [13]", "result": "0.62 ± 0.10", "unit": "s⁻¹"}, {"measurement": "kcat/Km", "setting": "[5]; [13]", "result": 59600, "unit": "M⁻¹ s⁻¹"}, {"measurement": "Km", "setting": "[5]; [14]", "result": "10 ± 2", "unit": "µM"}, {"measurement": "kcat", "setting": "[5]; [14]", "result": "0.62 ± 0.1", "unit": "s⁻¹"}, {"measurement": "kcat/Km", "setting": "[5]; [14]", "result": 62000, "unit": "M⁻¹ s⁻¹"}, {"measurement": "Km", "setting": "[6]", "result": "19 ± 4", "unit": "µM"}, {"measurement": "kcat", "setting": "[6]", "result": "0.24 ± 0.01", "unit": "s⁻¹"}, {"measurement": "kcat/Km", "setting": "[6]", "result": 12600, "unit": "M⁻¹ s⁻¹"}, {"measurement": "Km", "setting": "[7]", "result": "31 ± 12", "unit": "µM"}, {"measurement": "kcat", "setting": "[7]", "result": "0.42 ± 0.05", "unit": "s⁻¹"}, {"measurement": "kcat/Km", "setting": "[7]", "result": 13500, "unit": "M⁻¹ s⁻¹"}, {"measurement": "Km", "setting": "[8]", "result": "29 ± 8", "unit": "µM"}, {"measurement": "kcat", "setting": "[8]", "result": "0.25 ± 0.03", "unit": "s⁻¹"}, {"measurement": "kcat/Km", "setting": "[8]", "result": 8600, "unit": "M⁻¹ s⁻¹"}, {"measurement": "Km", "setting": "[9]", "result": "7.5 ± 1.6", "unit": "µM"}, {"measurement": "kcat", "setting": "[9]", "result": "0.32 ± 0.07", "unit": "s⁻¹"}, {"measurement": "kcat/Km", "setting": "[9]", "result": 42700, "unit": "M⁻¹ s⁻¹"}]}, {"molecule": "CCCCCCCC(NC(=O)[C@H](CC(=O)O)NC(C)=O)C(=O)O", "note": "(some centres unmarked) [8S, Ac-Asp-Ano]", "values": [{"measurement": "efficiency of rhGCPII hydrolysis compared to Ac-Asp-Ala", "setting": "[10]", "result": "approximately 20 fold"}, {"measurement": "stronger binding to K699S mutant compared to wild-type GCPII", "setting": "[11]", "result": "approximately 3 fold"}]}, {"molecule": "CSCC[C@H](NC(=O)[C@H](CC(=O)O)NC(C)=O)C(=O)O", "note": "[NAAM, N-acetyl-aspartyl-methionine] (Ac-Asp-Met-OH)", "values": [{"measurement": "Km", "setting": "[12]", "result": "24.8 ± 2.9", "unit": "µM"}]}]}
